Data reported in the DeepSol protein solubility set.

Assay: soluble on expression in E. coli; label from the status in PepcDB or PDB records

| Sequence | soluble on expression in E. coli |
| --- | --- |
| MKKVYLFKLKFNTPYGLRVGGPKEDISTLTPLKIGQHYVIPSSSWKGIFRRTTEVLITNPNHFRGHEGEDVTDDGSLDELLEAKGLENKNDENVRKERKRFIAMWNCPVERLYGSEYFASAVTFSDTLIDAEINQRTHVVIDRKTRKSEEKHLYSEQIVNVNSVRVKVIVRDRIDDWIKTLKFLSEFGTFVGGGKSRGIGYAVLDWKESEYAEVDGLTRKIMFKPLDELKL | soluble |
| MKKWLPAFLFLSLSGCNDALAANQSTMFYSFNDNIYRPQLSVKVTDIVQFIVDINSASSTATLSYVACNGFTWTHGLYWSEYFAWLVVPKHVSYNGYNIYLELQSRGSFSLDAEDNDNYYLTKGFAWDEANTSGQTCFNIGEKRSLAWSFGGVTLNARLPVDLPKGDYTFPVKFLRGIQRNNYDYIGGRYKIPSSLMKTFPFNGTLNFSIKNTGGCRPSAQSLEINHGDLSINSANNHYAAQTLSVSCDVPTNIRFFLLSNTNPAYSHGQQFSVGLGHGWDSIISINGVDTGETTMRWYRAGTQNLTTGSRLYGESSKIQPGVLSGSATLLMILP | soluble |
| MKKYFLGDQPTTLDASAFGFLINTIACPIESPLKEYGLSKENLGDYIDRIKMQYYPDLQLEHHHHHH | not soluble |
| MKLDKIDNKNRRIRKKLFLGEFAILGFEISCETDINDFDRYDAFVDDFIDYIDTLGLCFGGGGLELFEGFLCSTERYGSATEEQKAQVVAWLEARPEVKSAKAGDLLDANYL | soluble |
| MKLDLDAFRIQPGKKPNLAKRPTRIDPVYRSKGEYHELLANHVAELSKLQNVLYADNRYAILLIFQAMDAAGKDSAIKHVMSGVNPQGCQVYSFKHPSATELEHDFLWRTNCVLPERGRIGIFNRSYYEEVLVVRVHPEILEMQNIPHNLAHNGKVWDHRYRSIVSHEQHLHCNGTRIVKFYLHLSKEEQRKRFLERIDDPNKNWKFSTADLEERKFWDQYMEAYESCLQETSTKDSPWFAVPADDKKNARLIVSRIVLDTLESLNLKYPEPSPERRKELLDIRKRLENPENGK | not soluble |
| MKLERILPFSKTLIKEHIKQDSIVIDATCGNGNDTLFLAQQVSNGHVFGFDIQDTAIQSTFEKVKAFNNVTLIQDGHENIKKHIDIQFKGQIDAAIFNLGYLPKGDKSIVTRPETTIKAINAIFDYLSVEGIIVLVIYHGHAEGQVERDALLDFLEHFDQEKAHILKYQFMNQVNHAPFICAIEKRLEHHHHHH | not soluble |
| MKLIKTIDAVGQVLCHDITQIIPGEFKGRKFKKGHIVKEEDIPVLLSLGKDNLYVWEKSEGMVHENEGALFLKELTAGENLDFSEIKEGKIDFIAACDGLLKIDVDALFDLNCVGEIMMATLHNNFIVNKGLKVAGTRVIPLVIDEKKLEDAKKVVGNRKIVNVVPFKPKKVGIVTTGNEVFYSRIVDKFGPVIEEKVKGFGCEVIGQTICPDDKEIIKSAIKEFISQGAELICCTGGMSVDPDDVTPTAIKETGADLVTYGSPILPGAMFLLAYYGEVPIMGIPGCAMYHKTTVFDIVLSRVLIDEKLDKYDIARYGHGGLCMNCDVCTYPACNFAKI | soluble |
| MKLINTTNSHSQLVKSQLESTDATLVEVYSAGNTDVIFTQAPLHYEILISNKHRAIREPEIETIQEFFLKRKIDKASVDEANIKTLYSEKLIGISIPIK | not soluble |
| MKLKDCVMIKKIFALPVIEQISPVLSRRKLDELDLIVVDHPQVKASFALQGAHLLSWKPAGEEEVLWLSNNTPFKNGVAIRGGVPVCWPWFGPAAQQGLPAHGFARNLPWTLKSHHEDADGVALTFELTQSEETKKFWPHDFTLLAHFRVGKTCEIDLESHGEFETTSALHTYFNVGDIAKVSVSGLGDRFIDKVNDAKENVLTDGIQTFPDRTDRVYLNPQDCSVINDEALNRIIAVGHQHHLNVVGWNPGPALSISMGDMPDDGYKTFVCVETAYASETQKVTKEKPAHLAQSIRVAKRLEHHHHHH | not soluble |
| MKLKIDLNCDLGEAFGNYTFGGDQHILPLITSANIACGYHAGDEDVMNETVQLAKKNNISIGAHPGLPDLKGFGRRKMDLTPNEIYNLVIYQLGALSGFCKINHVKMMHVKPHGALYQMGARNKEIAHAIAQAVFDFDSNLIFVGLANTLLISEAELVGLKVASEVFADRRYEDDGQLVSRKKTDATITNTDEAIQQALKMVLENKVVSKNGKIIDLKADTICVHGDGKHALEFVTQIRNELMKEGIDIQSLLEHHHHHH | soluble |
| MKLLILGNHTCGNRGDSAILRGLLDAINILNPHTEVDVMSRYPVSSSWLLNRPVMGDPLFLQMKQHNSAAGVVGRVKKVLRRRYQHQVLLSRVTDTGKLRNIAIAQGFTDFVRLLSGYDAIIQVGGSFFVDLYGVPQFEHALCTFMAKKPLFMIGHSVGPFQDEQFNQLANYVFGHCDALILRESVSLDLMKRSNITTAKVEHGVDTAWLVDHHTEDFTASYAVQHWLDVAAQQKTVAITLRELAPFDKRLGTTQQVYEKAFAGVVNRILDEGYQVIALSTCTGIDSYNKDDRMVALNLRQHISDPARYHVVMDELNDLEMGKILGACELTVGTRLHSAIISMNFATPAIAINYEHKSAGVMQQLGLPEMAIDIRHLLDGSLQAMVADTLGQLPALNARLSEAVSRERQTGMQMVQSVLERIGEVK | soluble |
| MKLLQRGVALALLTTFTLASETALAYEQDKTYKITVLHTNDHHGHFWRNEYGEYGLAAQKTLVDGIRKEVAAEGGSVLLLSGGDINTGVPESDLQDAEPDFRGMNLVGYDAMAIGNHEFDNPLTVLRQQEKWAKFPLLSANIYQKSTGERLFKPWALFKRQDLKIAVIGLTTDDTAKIGNPEYFTDIEFRKPADEAKLVIQELQQTEKPDIIIAATHMGHYDNGEHGSNAPGDVEMARALPAGSLAMIVGGHSQDPVCMAAENKKQVDYVPGTPCKPDQQNGIWIVQAHEWGKYVGRADFEFRNGEMKMVNYQLIPVNLKKKVTWEDGKSERVLYTPEIAENQQMISLLSPFQNKGKAQLEVKIGETNGRLEGDRDKVRFVQTNMGRLILAAQMDRTGADFAVMSGGGIRDSIEAGDISYKNVLKVQPFGNVVVYADMTGKEVIDYLTAVAQMKPDSGAYPQFANVSFVAKDGKLNDLKIKGEPVDPAKTYRMATLNFNATGGDGYPRLDNKPGYVNTGFIDAEVLKAYIQKSSPLDVSVYEPKGEVSWQ | soluble |
| MKLQQLKYALEVYQHNLNVSEAAEALFTSQPGISKQIKLLEEEIGIQIFIRSGKRVVSVSQPGKVVLDIAERILRDVQNIKNIGSEFTGQDSGSLTVATTHTQARYALPLIVADFVKRYPKVNLTIKQGSPAAIARMVTSGEADLAIVTERIDDHPELGKLPCYDWTHAVIVPNDHPLLECRNPLRIEDLARFPLITYEFAFNAGSSIARAFSKARLEQPDVALAAADTDVLKTYVRLGLGVGLMAKMAYNPDTDGDLQLVDAAHLFEPSPTWIALRSDTYLRGYAYDFIQAFAPHLTREKVDRILYTPISEDFSI | soluble |
| MKLSEIYNFLDQLSPFNIQESWDNSGILLGDRDSEISTVYLSLDIDENIIKEASENSLIITHHPLIFKGLKDLYDKTYPRAFIKEMIYKNISLISMHTNYDLSHLNTYFTEEILGFKISFKDKFLIYVENSMSFEALCDWVKKKLNLQILRVSDCGKKDIKRIAICTGSGGDLISKVDADCFLSGDFKYHQALEALSNQISLIDLGHFESERYFSQCLAKDLKNLPLQVIITVSKNPFQYFLEHHHHHH | soluble |
| MKLSTSLEMPFRESTDPICSVCNFSSLIAPHFGGLVCSACASFFRRTVALNIHYLCKKDNQCKGMRKNCRACRFESCVKIAGMKRSLVKERKNLNNIPLYILNRRNETGNQGVVRAFVSSNQNRLENRLSLSPLTELPINDEMDVSKILKTTPSSLLKYYVEQVSHGKQFYMNTLNIRTKEELFEIVSYQSKVAAETCRTCPGVDLLDNRDILILRKYFQFSNIWIESTWKYWFSNDFSNDTEKFDIKLMEFIGQVKSTLLISLSRLKFNIFEFTAFKAICIWKLVYHETSRAMKIVAQEHYEGVTKALISYYQTYTLLDSMEIAIRVGEITLLVSSVFQMYHDMAKLYLHMGLPF | not soluble |
| MKLTDSVLRSFRVAKVFRENSDKINCFDFSSNGETVISSSDDDSIVLYDCQEGKPKRTLYSKKYGVDLIRYTHAANTVVYSSNKIDDTIRYLSLHDNKYIRYFPGHNKRVVALSMSPVDDTFISGSLDKTIRLWDLRSPNCQGLMHLQGKPVCSFDPEGLIFAAGVNSEMVKLYDLRSFDKGPFATFKLQYERTCEWTGLKFSNDGKLILVSTNGGTLRVLDAFKGAVLHSFGGYNNSKGVILEAPFTPDSQFIMIGSEDGKIHVWNAESGMKVALLDGKHTGPVTCLQFNPKFMTFASACSNMAFWLPTIDD | not soluble |
| MKLTGQAIDGFLRKPDPKIRCVLVYGPDEGLVRERLEQLARTVVADPKDPFRITDLSGDDLRADPARLADEAAALAFGGGRRLVRLRQMTDQHAPRLKAFVEAPVGEALVLVQGGDLTARSALRKLFEGASAAAALPCYADEGRSLETLVRATLAEARLAAAPEVIDYLVANLGGDRGVSRSELAKLVTYCGKATSVSLDDALACVGDSAQIGLDMLTNAVAEGDSATALRALDRLGQEGMATVALLRGLTRHFTRLHLVAGLIAGGTSVDQALAALKPPVMFKLAPRFRSQVQRWSAERLAQALDLLLDAEIDAKSSGLPERALVERLLLRLARGAKTASRLEHHHHHH | not soluble |
| MKLVICIVQDDDAGELIDVLTDKGLRVTKLATTGGFLKAGNTTLMIGVEEKAVDGVIETIEDVCKTRQQVVTSPSPVAGSTGVYVPYPIDVEVGGATIFVVDVDKFIKI | not soluble |
| MKMADAKQKRNEQLKRWIGSETDLEPPVVKRKKTKVKFDDGAVFLAACSSGDTEEVLRLLERGADINYANVDGLTALHQACIDDNVDMVKFLVENGANINQPDNEGWIPLHAAASCGYLDIAEYLISQGAHVGAVNSEGDTPLDIAEEEAMEELLQNEVNRQGVDIEAARKEEERIMLRDARQWLNSGHINDVRHAKSGGTALHVAAAKGYTEVLKLLIQARYDVNIKDYDGWTPLHAAAHWGKEEACRILVENLCDMEAVNKVGQTAFDVADEDILGYLEELQKKQNLLHSEKREKKS | soluble |
| MKMMPSKLQKNKQRLRNDPLNQNKGKPDLNTTLPIRQTASIFKQPVTKVTNHPSNKVKSDPQRMNEQPRQLFWEKRLQGLSASDVTEQIIKTMELPKGLQGVGPGSNDETLLSAVASALHTSSAPITGQVSAAVEKNPAVWLNTSQPLCKAFIVTDEDIRKQEERVQQVRKKLEEALMADILSRAADTEEMDIEMDSGDEALEHHHHHH | soluble |
| MKMSELEKMLKGEHFDGASAEIEALRSQAGRLKLEINQSLDEAERYALQRELFGHLGHKSCVQPPFHCEFGKTIRIGDHTFINMNVVMLDGAPITIGDHVLIGPSTQFYTASHSLDYRRRQAWETICKPIVIEDDVWIGGNVVINQGVTIGARSVVAANSVVNQDVPPDTLVGGTPARILRSLKDPAESMAE | not soluble |
| MKMSTKGRYGLRAMLDIAVNSKGDIVSVKSIAERQNISESYLEQVFSILRKAAIVKSIKGAQGGYVLADDPSNITVGKILRTLEGNLNVVDIDDRDSEVSKEEKCINEFVWNKINKSIDKVVDNITLGDLLREYQKLEDNSSVMYYI | soluble |
| MKNAFFVTASIACGKSTFIEIANSLGFKSISADKIAHKILDENALELEKIFSPFSLKNLLKKEKKIDRKILGEIVFNNKEAKKILENFTHPKIRAKILEQMQILDKENKAFFVEIPLFFESGAYENLGKVIVIYTPKELSLKRIMQRDKLSLEAAKARLDSQIDIEEKLKKADFIIKNTNSYADFRQECVKVIQEISKGNM | not soluble |
| MKNLERLFAEKLLKIKAIKLQPANPFTWASGWKSPFYCDNRKTLSYPSLRNFVKIEITRLILERFGQVDAIAGVATGAIPQGALVADALNLPFVYVRSTPKDHGLENLIEGELRPGMKVVVVEDLISTGGSSLKAVEAIRRDGCEVIGMVAAYTYGFPVAEEAFKNAKVPLVTLTNYEAVLDVALRTGYIEEEDIATLNDWRKDPAHWDAGK | soluble |
